According to the supplement of paper PMC7125110:
± gives the standard error. For some of these results: This sample holds only a part of the variants without activity.

B1: glmS ribozyme (parent)
chain: AUAAAAGCGCCAGAACUACAGAAAUGUAGUUGACGAGGAGGAGGUUUAUCGAAUUUUCGGCGGAUGCCUCCAAA

Columns and labels:
Settings in all cases: with glucosamine-6-phosphate
glucosamine-6-phosphate [1] = variants of: B1; assay: self-cleavage kobs at 40 uM GlcN6P; higher = faster cleavage; RNA array
Summary of the method: (§1)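 Glucosamine-6-phosphate, from 40 μM to 10 mM in HEPES/KCl/Mg(OAc)2 buffer, was flowed over sequenced MiSeq chips carrying barcoded ribozyme variants transcribed in situ by E. coli RNA polymerase. A hybridised Cy3 probe tracked the variants at 37 °C as tiles were imaged over ~14 h. kobs, kcat and KM were obtained by fitting normalised per-tile medians to exponential decays and then applying weighted Michaelis–Menten fits across concentrations.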

glucosamine-6-phosphate [2] = variants of: B1; assay: self-cleavage kobs at 10000 uM GlcN6P; higher = faster cleavage; RNA array
Summary of the method: as §1

glucosamine-6-phosphate [3] = variants of: B1; assay: kcat; higher = faster cleavage; RNA array
Summary of the method: as §1

glucosamine-6-phosphate [4] = variants of: B1; assay: self-cleavage kobs at 640 uM GlcN6P; higher = faster cleavage; RNA array
Summary of the method: as §1

glucosamine-6-phosphate [5] = variants of: B1; assay: KM; higher = weaker cofactor use; RNA array
Summary of the method: as §1

glucosamine-6-phosphate [6] = variants of: B1; assay: self-cleavage kobs at 160 uM GlcN6P; higher = faster cleavage; RNA array
Summary of the method: as §1

glucosamine-6-phosphate [7] = variants of: B1; assay: self-cleavage kobs at 2500 uM GlcN6P; higher = faster cleavage; RNA array
Summary of the method: as §1

Variant	self-cleavage kobs at 40 uM GlcN6P (glucosamine-6-phosphate [1]) [s⁻¹]	self-cleavage kobs at 10000 uM GlcN6P (glucosamine-6-phosphate [2]) [s⁻¹]	kcat (glucosamine-6-phosphate [3]) [s⁻¹]	self-cleavage kobs at 640 uM GlcN6P (glucosamine-6-phosphate [4]) [s⁻¹]	KM (glucosamine-6-phosphate [5]) [µM]	self-cleavage kobs at 160 uM GlcN6P (glucosamine-6-phosphate [6]) [s⁻¹]	self-cleavage kobs at 2500 uM GlcN6P (glucosamine-6-phosphate [7]) [s⁻¹]
G9C U47C A53G G62A C68G	< 1e-05	< 1e-05	–	–	–	–	–
C11A U57C	–	–	< 1e-05	< 1e-05	–	–	–
C58A C70U	–	0.000145 ± 1.7e-05	0.000164 ± 2.2e-05	6.79e-05 ± 8.4e-06	718 ± 270	3.94e-05 ± 9.4e-06	0.000143 ± 1.3e-05
C11U U31C	–	0.000465 ± 5.5e-05	0.000563 ± 7.8e-05	0.000179 ± 2.3e-05	1620 ± 460	2.97e-05 ± 1.5e-05	0.000364 ± 5.9e-05
G38U	–	–	< 1e-05	–	–	–	–
A15G U56A	0.000313 ± 3.4e-05	0.00825 ± 0.0011	0.00941 ± 0.0033	0.00267 ± 0.00031	1700 ± 790	0.000554 ± 9.9e-05	0.00536 ± 0.0015
A6U G59A C68U	–	–	1.04e-05 ± 3.6e-06	–	–	–	–
G41A A48G	< 1e-05	–	–	< 1e-05	–	< 1e-05	< 1e-05
C10G C50G	5.37e-05 ± 1.8e-05	4.6e-05 ± 1.1e-05	–	0.00026 ± 4.4e-05	–	0.000187 ± 3.5e-05	9.17e-05 ± 2.1e-05
A12C G29U	0.000186 ± 2.6e-05	0.031 ± 0.014	–	0.00225 ± 0.00065	–	0.000725 ± 0.00022	0.00483 ± 0.0017
G37A G41A	–	0.000229 ± 4.8e-05	0.000353 ± 0.00012	3.79e-05 ± 9.7e-06	–	3.21e-05 ± 1.4e-05	0.00016 ± 2.5e-05
A14G U55C A64C	< 1e-05	–	–	–	–	–	–
G7U G38A	< 1e-05	< 1e-05	–	–	–	< 1e-05	–
G44U U56G	–	0.00015 ± 3.7e-05	0.00018 ± 3.5e-05	3.67e-05 ± 1.1e-05	3010 ± 1100	–	6.96e-05 ± 1.9e-05
A48U A52G	–	–	1.32e-05 ± 2.9e-06	–	–	–	–
G29U C50A G66U	–	–	1.4e-05 ± 4.4e-06	–	–	–	–
G59A A64G	< 1e-05	7.67e-05 ± 1.6e-05	9.06e-05 ± 1.3e-05	–	–	–	6.66e-05 ± 2.7e-05
A12U G40U G41C	< 1e-05	–	–	–	–	–	–
U47C U54A	0.000112 ± 1.8e-05	0.00384 ± 0.00049	0.00447 ± 0.00014	0.00127 ± 0.00023	1630 ± 77	0.00038 ± 7.2e-05	0.00275 ± 0.00072
